This is an account of results in patent publication US20200317768A1 (published 2020).

Positions count from the first letter of the chain named.

What all share (test): SPR (BIACORE), antibody captured, FcgR analyte
On the technique in general: In SPR one partner is held on a chip, and binding of the other changes the refractive index at the surface.

Test [1] addresses T1, cynomolgus monkey FcγRIIa2 extracellular domain with C-terminal His-tag (cynomolgus monkey).
T1 construct: also called cyno FcgRIIa2; cynoFcγRIIa2
T1 chain: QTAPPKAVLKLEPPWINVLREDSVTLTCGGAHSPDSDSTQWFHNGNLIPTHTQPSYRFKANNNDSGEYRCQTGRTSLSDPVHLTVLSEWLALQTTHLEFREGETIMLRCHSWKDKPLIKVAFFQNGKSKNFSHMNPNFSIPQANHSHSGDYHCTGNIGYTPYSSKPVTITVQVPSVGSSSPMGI

For test [2], the target named is T2, cynomolgus monkey FcγRIIa3 extracellular domain with C-terminal His-tag (cynomolgus monkey).
T2 construct: also called cyno FcgRIIa3; cynoFcγRIIa3
T2 chain: T1 chain with K127I, N130K, H133P, Q142R

Test [3] concerns the target T3, cynomolgus monkey FcγRIIb extracellular domain with C-terminal His-tag (cynomolgus monkey).
T3 construct: also called cyno FcgRIIb; cynoFcγRIIb
T3 chain: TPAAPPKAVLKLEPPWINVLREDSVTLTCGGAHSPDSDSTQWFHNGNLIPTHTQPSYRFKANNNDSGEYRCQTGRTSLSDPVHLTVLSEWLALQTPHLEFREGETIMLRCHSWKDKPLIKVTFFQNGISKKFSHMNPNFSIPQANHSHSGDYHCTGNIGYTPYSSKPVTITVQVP

The target of test [4] is T4, cynomolgus monkey FcγRIIIaS extracellular domain with C-terminal His-tag (cynomolgus monkey, UniProt Q8SPW2 21-206 at identity 1.00)).
T4 construct: also called cyno FcgRIIIaS; cynoFcγRIIIaS
T4 chain: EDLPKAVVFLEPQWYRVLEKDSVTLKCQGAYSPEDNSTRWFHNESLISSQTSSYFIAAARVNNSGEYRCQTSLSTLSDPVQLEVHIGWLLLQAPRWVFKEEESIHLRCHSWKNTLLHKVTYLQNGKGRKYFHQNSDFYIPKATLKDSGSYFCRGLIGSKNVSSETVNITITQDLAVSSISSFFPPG

The target of test [5] is T5, human FcγRIIaH extracellular domain with C-terminal His-tag (human, UniProt P12318 34-217).
T5 construct: also called human FcgRIIaH; FcγRIIa (type H)
T5 sequence: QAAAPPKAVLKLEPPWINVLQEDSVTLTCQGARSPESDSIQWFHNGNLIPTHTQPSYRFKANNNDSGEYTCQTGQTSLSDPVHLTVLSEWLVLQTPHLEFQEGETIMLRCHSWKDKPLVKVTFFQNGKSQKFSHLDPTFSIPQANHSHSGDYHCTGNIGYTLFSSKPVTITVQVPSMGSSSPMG

For test [6], the target named is T6, human FcγRIIaR extracellular domain with C-terminal His-tag (human, UniProt P12318 34-217).
T6 construct: also called human FcgRIIaR; FcγRIIa (type R)
T6 chain: T5 sequence with H134R

Test [7] deals with T7, human FcγRIIb extracellular domain with C-terminal His-tag (human, UniProt P31994 43-217).
T7 construct: also called human FcgRIIb
T7 sequence: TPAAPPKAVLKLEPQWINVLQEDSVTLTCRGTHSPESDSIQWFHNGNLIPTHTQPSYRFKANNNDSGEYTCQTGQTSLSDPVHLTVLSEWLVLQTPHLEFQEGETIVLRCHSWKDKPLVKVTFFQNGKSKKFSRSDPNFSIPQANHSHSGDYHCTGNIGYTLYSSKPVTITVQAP

By Kd is commonly meant the free concentration of one partner at which half of the binding sites on the other are occupied at equilibrium, for simple one-to-one binding.

B1: M103205H795-MY514/M103202L889-SK1 (antibody, human IgG1, kappa)
heavy: QVTLKESGPVLVKPTETLTLTCTVSGIDLSHDDISWVRQAPGKGLEWVGIISYAGSTYYASWAKGRLTISKDTSKNQVVLTMTNMDPVDTATYYCARGVPAYSHGGDLWGQGTLVTVSSASTKGPSVFPLAPSSKSTSGGTAALGCLVKDYFPEPVTVSWNSGALTSGVHTFPAVLQSSGLYSLSSVVTVPSSSLGTQTYICNVNHKPSNTKVDKKVEPKSCDKTHTCPPCPAPELLTGPVVFLFPPKPKDTLMISRTPEVTCVVVDVSDEDPEVKFNWYVDGVEVHNAKTKPREEQYNLTYRVVSVLTVLHQDWLNGKEYKCKVSNKALPKPIEKTISKAKGQPREPQVYTLPPSREEMTKNQVSLTCLVKGFYPSDIAVEWESNGQPENNYKTTPPVLDSDGSFFLYSKLTVDKSRWQQGNVFSCSVMHEALHNHYTQKSLSLSP
light: DIVMTQSPATLSLSPGERATLSCTSSQSVYHANWLSWFQQKPGQPPKLLIYWASTLAYGVPSRFSGSGSGTDFTLTISSLQPEDAATYYCAGGYGGGRYAFGQGTKVEIKRTVAAPSVFIFPPSDEQLKSGTASVVCLLNNFYPREAKVQWKVDNALQSGNSQESVTEQDSKDSTYSLSSTLTLSKADYEKHKVYACEVTHQGLSSPVTKSFNRGEC
notes: Substitutions introduced into M103205H795-SG1, expressed with M103202L889-SK1 as light chain; EU numbering
For the molecule B1, the dissociation constant (Kd) in test [1] came out at 1600 nM; in test [2], 1500 nM; in test [3] it was 760 nM; in test [4], 4400 nM; in test [5], 350 nM; in test [6] it was 160 nM. This molecule also gave a Kd in test [7] of 690 nM.

B2: M103205H795-MY530/M103202L889-SK1 (antibody, human IgG1, kappa)
heavy: B1 heavy with V241S, L300S, K328T
light: B1 light
notes: as for B1
On to B2, for which the Kd in test [1] came out at 1100 nM; in test [2] it was 2500 nM; in test [3], 320 nM; in test [4], 850 nM; in test [5], 170 nM; in test [6], 270 nM. The same molecule came in with a dissociation constant Kd in test [7] of 1600 nM.

B3: M103205H795-MY527/M103202L889-SK1 (antibody, human IgG1, kappa)
heavy: B1 heavy with A233T, V241S, Q297L, L300S
light: B1 light
notes: as for B1
For B3, the dissociation constant Kd in test [1] amounted to 1300 nM; in test [2] it was 3400 nM; in test [3], 340 nM; in test [4], 1500 nM; in test [5], 110 nM; in test [6] it was 290 nM. In addition, the dissociation constant (Kd) in test [7] came to 1400 nM.

B4: M103205H795-MY524/M103202L889-SK1 (antibody, human IgG1, kappa)
heavy: B1 heavy with A233G, V241S, Q297L, L300S
light: B1 light
notes: as for B1
Take B4: the Kd was 11000 nM in test [1]; 2700 nM in test [2]; 310 nM in test [3]; 2000 nM in test [4]; 110 nM in test [5]; 280 nM in test [6]. The same molecule registered a Kd in test [7] of 1000 nM.

B5: M103205H795-MY521/M103202L889-SK1 (antibody, human IgG1, kappa)
heavy: B1 heavy with P234D, V241S, Q297L, L300S
light: B1 light
notes: as for B1
In the case of B5, the Kd in test [1] turned out to be 33000 nM; in test [2], 4400 nM; in test [3], 800 nM; in test [4], 2200 nM; in test [5], 390 nM; in test [6], 300 nM. In addition, the dissociation constant (Kd) in test [7] came out at 1500 nM.

B6: M103205H795-MY516/M103202L889-SK1 (antibody, human IgG1, kappa)
heavy: B1 heavy with Q297L
light: B1 light
notes: as for B1
Take B6: the Kd came out at 13000 nM in test [1]; 790 nM in test [2]; 450 nM in test [3]; 3000 nM in test [4]; 220 nM in test [5]; 85 nM in test [6]. The molecule also yielded a Kd in test [7] of 510 nM.

B7: M103205H795-MY523/M103202L889-SK1 (antibody, human IgG1, kappa)
heavy: B1 heavy with A233G, Q297L, L300S
light: B1 light
notes: as for B1
Consider B7, for which the Kd in test [1] was found to be 1300 nM; in test [2], 1100 nM; in test [3], 430 nM; in test [4], 2100 nM; in test [5] it was 190 nM; in test [6], 210 nM. Further, in test [7], the dissociation constant Kd worked out at 1100 nM.

B8: M103205H795-MY525/M103202L889-SK1 (antibody, human IgG1, kappa)
heavy: B1 heavy with A233T, L300S
light: B1 light
notes: as for B1
With B8, the Kd stood at 1100 nM in test [1]; 1100 nM in test [2]; 510 nM in test [3]; 1400 nM in test [4]; 210 nM in test [5]; 160 nM in test [6]. For the same molecule, the affinity in test [7], expressed as Kd, was 1200 nM.

B9: M103205H795-MY528/M103202L889-SK1 (antibody, human IgG1, kappa)
heavy: B1 heavy with L236W, V241S, L300S
light: B1 light
notes: as for B1
B9: the Kd in test [1] worked out at 1500 nM; in test [2], 3200 nM; in test [3], 410 nM; in test [4], 2000 nM; in test [5], 390 nM; in test [6], 360 nM. Also, binding in test [7] was put at a Kd of 2200 nM.

B10: M103205H795-MY520/M103202L889-SK1 (antibody, human IgG1, kappa)
heavy: B1 heavy with P234D, Q297L, L300S
light: B1 light
notes: as for B1
B10: the Kd stood at 2300 nM in test [1]; 2100 nM in test [2]; 960 nM in test [3]; 2000 nM in test [4]; 490 nM in test [5]; 340 nM in test [6]. Also, the Kd in test [7] amounted to 1400 nM.

B11: M103205H795-MY526/M103202L889-SK1 (antibody, human IgG1, kappa)
heavy: B1 heavy with A233T, Q297L, L300S
light: B1 light
notes: as for B1
Turning to B11, the Kd in test [1] is 1200 nM; in test [2], 1300 nM; in test [3], 450 nM; in test [4], 16000 nM; in test [5], 170 nM; in test [6], 210 nM. The same molecule showed an equilibrium dissociation constant (Kd) in test [7] of 1200 nM.

B12: M103205H795-MY529/M103202L889-SK1 (antibody, human IgG1, kappa)
heavy: B1 heavy with L236W, V241S, Q297L, L300S
light: B1 light
notes: as for B1
As to B12, the Kd in test [1] amounted to 1400 nM; in test [2] it was 3200 nM; in test [3] it was 390 nM; in test [4] it was 2200 nM; in test [5], 230 nM; in test [6], 530 nM. The Kd in test [7] came out at 1400 nM.

B13: M103205H795-MY515/M103202L889-SK1 (antibody, human IgG1, kappa)
heavy: B1 heavy with V241S, Q297L
light: B1 light
notes: as for B1
On to B13, for which the dissociation constant Kd in test [1] turned out to be 1600 nM; in test [2], 2900 nM; in test [3], 390 nM; in test [4], 3800 nM; in test [5], 220 nM; in test [6], 260 nM. In test [7], this molecule showed an equilibrium dissociation constant (Kd) of 1200 nM.

B14: M103205H795-MY522/M103202L889-SK1 (antibody, human IgG1, kappa)
heavy: B1 heavy with A233G, L300S
light: B1 light
notes: as for B1
For the molecule B14, the equilibrium dissociation constant (Kd) in test [1] came out at 1200 nM; in test [2], 930 nM; in test [3], 530 nM; in test [4] it was 1900 nM; in test [5] it was 240 nM; in test [6], 170 nM. In addition, binding in test [7] was put at a Kd of 1100 nM.
